From patent publication US20100135951

Target: purified cIAP1, Q13490
Sequence (Q13490 whole entry): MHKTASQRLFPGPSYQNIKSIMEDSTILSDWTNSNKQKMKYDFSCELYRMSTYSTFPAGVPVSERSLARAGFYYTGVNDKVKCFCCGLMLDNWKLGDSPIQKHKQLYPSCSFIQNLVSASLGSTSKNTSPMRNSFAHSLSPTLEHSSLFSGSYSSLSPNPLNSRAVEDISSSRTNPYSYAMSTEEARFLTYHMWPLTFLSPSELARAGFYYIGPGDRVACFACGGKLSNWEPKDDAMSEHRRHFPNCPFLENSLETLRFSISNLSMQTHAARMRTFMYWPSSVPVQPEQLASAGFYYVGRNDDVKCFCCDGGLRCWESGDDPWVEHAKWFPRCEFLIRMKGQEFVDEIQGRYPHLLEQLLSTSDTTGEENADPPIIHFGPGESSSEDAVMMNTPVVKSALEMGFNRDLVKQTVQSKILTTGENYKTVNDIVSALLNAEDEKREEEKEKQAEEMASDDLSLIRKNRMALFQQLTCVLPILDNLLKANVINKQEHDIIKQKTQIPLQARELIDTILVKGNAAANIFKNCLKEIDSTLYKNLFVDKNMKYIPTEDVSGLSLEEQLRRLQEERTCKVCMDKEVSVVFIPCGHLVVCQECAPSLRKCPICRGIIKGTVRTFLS

B1: recombinant active human caspase-8 (protein)
chain: SESQTLDKVYQMKSKPRGYCLIINNHNFAKAREKVPKLHSIRDRNGTHLDAGALTTTFEELHFEIKPHDDCTVEQIYEILKIYQLMDHSNMDCFICCILSHGDKGIIYGTDGQEAPIYELTSQFTGLKCPSLAGKPKVFFIQACQGDNYQKGIPVETDSEEQPYLEMDLSSPQTRYIPDEADFLLGMATVNNCVSYRNPAEGTWYIQSLCQSLRERCPRGDDILTILTEVNYEVSNKDDKKNMGKQMPQPTFTLRKKLVFPSD
caspase-8 protease activity (fluorogenic substrate Ac-IETD-AMC): purified cIAP1 also suppressed caspase-8 protease activity completely
